The target of test [1] is MSP4 on P. falciparum 3D7A parasites (mature schizonts / merozoite surface) (Plasmodium falciparum 3D7A). As to the kind of experiment: cell-based or functional assay.
Test [2] has as its target MSP4 on P. falciparum K1 parasites (multi-drug-resistant strain) (Plasmodium falciparum K1). In words: cell-based or functional assay.

B1: Gb-2.44 (enterokinase-activated EGb-2.44scFv fusion protein: granzyme B R201K fused to MSP4-specific scFv 2.44) (other)
chain: SRHIDDDDKIIGGHEAKPHSRPYMAFLMIWDQKSLKRCGGFLIRDDFVLTAAHCWGSSINVTLGAHNIKEQEPTQQFIPVKRAIPHPAYNPKNFSNDIMLLQLERKAKRTRAVQPLRLPSNKAQVKPGQTCSVAGWGQTAPLGKHSHTLQEVKMTVQEDRKCESDLRHYYDSTIELCVGDPEIKKTSFKGDSGGPLVCNKVAQGIVSYGKNNGMPPRACTKVSSFVHWIKKTMKRYAEHEGDAAQPAMADVQLQESGPGLVKPSQSLSLTCTVTGYSITSDFAWNWIRQFPGNRLEWMGYMGYTGSTSYNPSLRGRISITRDTSKNQFFLQLNSVTTEDTATYYCARGDYYGSRGYFDVWGAGTTVTVSSGGGGSGGGGSSGGGSGGGGSEIVLTQSPALMAASPGEKVTITCSVSSSIRSSNLHWYQQKSDTSPKPWIYGTSNLASGVPVRFSGSGSGTSYSLTISTMEAEDAATYYCQQWSSYPFTFGSGTKLEIKAAANSSLGSGWSHPQFEKTGHHHHHHHHGGQ
As for B1, in test [1], the “half maximal inhibitory concentration (IC50-value), 48-h drug susceptibility assay on P. falciparum 3D7A (PfHRP2 ELISA)” value stood at 176 nM. In test [2], the “IC50-value, 48-h drug susceptibility assay on multi-drug resistant strain P. falciparum K1 (PfHRP2 ELISA)” value stood at 247 nM.
